Results on 15 sequences are retold here after a protein production outcome set (Wang et al. 2014).

A short description of the data set: label from the status in PepcDB records.
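Further: failed if final PepcDB status was selected cloned or expressed and not failed if soluble or beyond.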

Turning to “MTAYTSWQTPHLFIFIQQDYILDSIPLSSLFITLIILLLLSAFFSSAETGLMSLNRYKIRHLTAQGHKGAKLAEKLLNKTDVLLSLILICNNLINIAASAIATMIGIRLAGDTGIAIATGILTLVMLVFSEILPKTIAVIYPEKISFLASYILTPLKKLLMPLVFLMNLIIKYLMKLMRIRQHEKSGLSIEELRSVVLEAGKFIPTAHQEMLISILDMEKVTVEDIMVPRNDIGGIDIEDDWKAIIRQLNHAAHGRVVLYKGNMDKNILGILRIREAFRLLLDKEEPSKKTLIRAVDEAYFIPEGTPLITQLMHFKTNKERLGLVVDEYGDIKGLVTLADILEEIVGEFTTSTAPTLAEEVKQQSDGSVIIEGSANLRDLNKLFNWHLPINEVRTFNGLILEHLEKIPIEGTQFRLNQLNITVLEVADNMVKKVKVELIE”, the protein production entry is given as “failed”.
On to “MTDARTTVVVITHNRCAEVLRTLDRLAELPERPAVIVTDNGSTDGTAAAVARHHPGVRLLRSGRNLGAVGRNLAVRQVTTPYVAFCDDDSWWAPGSLSGAADLLDRYPAVGSVTARILVEPEGTEDPIVEELRDSPVPRPDWLPGPALGSFLAAATVLRTDAFRAAGGFHPRLWLGGEEELLAADLAANGWWLTYAGQLTIHHHPSGVRDSTVRRSHGIRNTLWFTWLRRPVGPALRRTLHLARTVPRDTASLRAFAEATAALPWVLRERRVLPPEVEARLRALEPAQRDSTARSYTGLEHHHHHH”, for which the protein production entry was “failed”.
Turning to “MTDDRPPLPPFTRATAAQKVQAAEDAWNTRDPHKVSLAYSPDSVWRNRDTFVTGRAAIVELLTAKWAREREYALRKDLWAFDGNRIAVRFQYECQDADGQWWRSYGNELWEFDEHGLMTRREAGIHDVRIEERERRILGPRPEAERGRSFPVQ”, the protein production result is recorded as “failed”.
With “MTDDVTNVEQPSTASEQQPQDVPAAEPSAAKKRRANKAKSKATAAAIEQRLGHSFADPSLLTTAFTHVSALKSARRTDSYQRLEFLGDHVLGLIVSDMLYRAFPDADEGELSKRLADLVRKETCADVARSLDLVEGIKLGTVGAGAGAKLRKSVLGDICEAVIGAIYLDGGYEAASDFVRRNWTERMRKPARSLRDPKTVLQEWAQARGLPTPVYREVERTGPHHDPQFRVAVILPGLEPAEGLGGSKRAAEKVAASAMLAREGVGTGGNDG”, the protein production entry is recorded as “failed”.
For “MTDEDSEANALADPDNPPLSAEQLASAPRMPRIKIIRRALKLTQEEFSARYHIPLGTLRDWEQGRSEPDQPARAYLKIIAVDPEGTAAALRKGAT”, the protein production entry is on record as “not failed”.
For “MTDESDSTAHVSCIIPVYNDSVGIKNTLRSVVGQEYHGYDVYVVDNGSTDGSRRRVRNCAAESDDIQLLVEDEVQGSYAARKTGVQNAESDVLAFLDADETVDEDWLETALGAMQEQDVDYLGCNVELTCPEDTLVGRYNARTGFPVEEYLEDQNYAPTCALLVRRKVFEDVGPFDARLISGGDREFGDRVHDAGYEQGYAENATVYHPARTSLESLAKKNFRVGRGFCQKQRYYPERYGKPGIPPTPSGPSGGDDGDEPDASLTRLAFTLLSIAMLACRGVGYYYEFVVGEENDDIPAPTSLEHHHHHH”, the protein production result is reported as “failed”.
With “MTDKIFQEKVGPVALTIVPTQKYKSNKIVFKFRAPLERETVTKRSLLSILLETNSEKYPTQTAFRKQLANLYGANFYTTTAKKGNEHVLTVVFDMIDGQYVSDGENILKDAFAFIEQAIFQPNATNGAFDEEIVVREKENLKSSLEGIYDDKIRFASKRLVEEMFRDDEFRFGAAGVLEDVDAITAKDLYEYYLKFIKEDVIEIFICGDVTKEEVMPLIEKMAFSPRPERKGVFYTKEAPKETRVIHEQQAINQGKLVLGYQTETLFGDDDFVALQLANGLLGGFANSKIFINVREKASLAYYASSRIDSFKGYMIISAGIDEVNYKQALTIIEEQIVAMKQGDFTEDELNQTKEMLINQLLETNDQAQGLIELAYNNVLREANLDLENWIIKIKQATKQEVVAAINKIKPDTIYFLSKGGEELHGKNHI”, the protein production result is recorded as “failed”.
“MTDKKTTEKKETETAATFTEELTAVLEEIKEEPVKEKKKGEIVTIVNETDIQIGEREYRIVKNHRDAFDPERLGERFSEVLARYDYIVGDWGYEQLRLRGFFDTSNRRAAPDQRIDTLEDYLYEYCNFGCAYFVIERTGERKEKTTHRRRRHKKNNRSNAFVEEKSAPANKNSKPVIRTRKEENKKTTTPKQPSPKKSGKGFTIRQREELEHHHHHH”: the protein production result was “not failed”.
For “MTDLSARDRLAPDSSPRLLALASIALEAGALARQSLRRRHVDQMVSKGPRDYQTEIDVAVERLIVAGVSEAFPDHAIQGEEETGNRTGGPDAPVIYIDPIDGTTNFAWGLPHFGMTIAIAEQGKITCGVVYDSMLDELFSAEIGKGATLNGEKLRCADVADVQNVLVGAGLPVPGQVKSVDEELYHRALRRLMDNTAGVRRLGSAALSIAYVACGRLDGFFEDGLQVHDYGAAALILTEAGGVVTGFGGMPVDAGGGILAASPALHPWLLAGFQPGMDR”, the protein production entry is recorded as “failed”.
“MTDNKIKNEDGKLELIINAAQKRFAHYGLCKTTMNEIASDVGMGKASLYYYFPDKETLFEAVIKKEQNVFFDEMDKILNSGIDATALLKKYVKLRSLHFRHLLNLSKLRSDFFHNTKPVFAKAFESFKQKEVEIVAGIIQYGITTKEFKRGNKHENAEFLVHLLLGVRMVKLKYKEINDFDESDYEDLDKNMCKVAGMFLKEIQTEVASR”: the protein production entry is on record as “not failed”.
Turning to “MTDNLINNGTKTTPEAEILTAASNSRSSDAQHDDTAPAGEVLLDIDPDELLSDPAEKEETSAQDIALPDHVAGSGSLDRLIDQARDYAEAATAENTNKAYKADWKHFTGWCRRKGVDALVPSPAVIGLYISDCAKPQDGSPALSVSTIERRLSGLAANYRQRGLALDMKDRHIASVWAGIKRHHAKPPTQKEAVLIEDVLAMVGALSYSLRDLRDRAILLIGYAGGLRRTEIVGLDVGKDESDDGRGWVEILEGGAVLHIKGKTGWREVEIGRGSADQTCPVYALEQWLHYAKIDVGSVFRQVFRDNSRIGPERLSDKHVVRLIKRLVLETGVGLDRPALSKLSDEERAKFFAGHSLRAGLASGAEVDERYVQKQLGHASAEMTRRYQRRRDRFRVNLTKAVGL”, the protein production entry was “failed”.
As to “MTDNNQNNENHENSSENSKADEMRAGAFERFTNRKKRFRENAQKNAEYSNHEASSHHKKEHRPNKKPNNHHKQKHAKTRNYAQEELDSNKVEGVTEILHVNERGTLGFHKELKKGVEANNKIQVEHLNPHYKMNLNSKASVKITPLGGLGEIGGNMMVIETPKSAIVIDAGMSFPKEGLFGVDILIPDFSYLHQIKDKIAGIIITHAHEDHIGATPYLFKELQFPLYGTPLSLGLIGSKFDEHGLKKYRSYFKIVEKRCPISVGEFIIEWIHITHSIIDSSALAIQTKAGTIIHTGDFKIDHTPVDNLPTDLYRLAHYGEKGVMLLLSDSTNSHKSGTTPSESTIAPAFDTLFKEAQGRVIMSTFSSNIHRVYQAIQYGIKYNRKIAVIGRSMEKNLDIARELGYIHLPYQSFIEANEVAKYPDNEILIVTTGSQGETMSALYRMATDEHRHISIKPNDLVIISAKAIPGNEASVSAVLNFLIKKEAKVAYQEFDNIHVSGHAAQEEQKLMLRLIKPKFFLPVHGEYNHVARHKQTAISCGVPEKNIYLMEDGDQVEVGPAFIKKVGTIKSGKSYVDNQSNLSIDTSIVQQREEVASAGVFVATIFVNKNKQALLESSQFSSLGLVGFKDEKPLIKEIQGGLEVLLKSSNAEILNNPKKLEDHTRNFIRKALFKKFRKYPAIICHAHSF”, the protein production entry is recorded as “failed”.
With “MTDNRKFEIVADTELPGTPERVWQAVTKDTPAWMFPTDQWPDVKTTEEYPSHLVSRMDGPDGWFNQLEHVLEPLEGGRAKLHYVHSGIFADNWDEQYDGASKHTEFYLHTLGQYLQHFDGKPVVFTDIQAPPSSQAPDGFVQLKQALGVDGLPTGTSVDVDIDGVGRLSAEVDFSNENFLGLRTADTMYRFFGRNVFGAPVGMTVHEFSGSGDSELTAKAWGAFLEKVYALEHHHHHH” the entry was “failed”; with “MTDNRPCRKDLLDWINVVSFAVDDVKLFLDTHPCNKEAMEFFDEFKKQRVQALKEYAKYYGPLTLDTASTCTERWNWINEPWPWQEGGCLEHHHHHH”, “failed”; with “MTDPSSTLRLRGLLAEIVAAPLTRTVALLALCSAYIQGPLTKIFDFPGAIAEMNHFGLQPAAAFAVFVIIFELTASAMVVTGVLRWVGALALSGFTLLATFIALRFWEMAPGMDRMMATNAFFEHLGLAGAFVIVAAIDLTKGTGK”, “not failed”.
